Laboratory results as given in PMC8287928.

Target: SARS-CoV-2 spike pseudotyped lentivirus (PV) (SARS-CoV-2 (Wuhan-Hu-1)) (UniProt P0DTC2)
Experiment: dot blot (filter binding)

| Sequence | Kd [nM] |
| --- | --- |
| TTACGTCAAGGTGTCACTCCACGGGTTTGGCGTCGGGCCTGGCGGGGGGATAGTGCGGTGGAAGCATCTCTTTGGCGTG [MSA5] | 0.0118 |
| TTACGTCAAGGTGTCACTCCCACTTTCCGGTTAATTTATGCTCTACCCGTCCACCTACCGGAAGCATCTCTTTGGCGTG [MSA1] | 0.0227 |
